Measured values: patent US20100260668A1 (published 2010)
Values joined by “and” are separate entries in the source; they are usually repeats but may differ in a detail not shown here. Identical values can stand only once.

How the values were obtained:
[1] = molecular target: T1, CD-19 (human, UniProt P15391 20-556); test: flow cytometry on cells carrying the target, 2 ug/mL; N-terminal VD
T1 construct: whole, on cells
T1 sequence (looked up): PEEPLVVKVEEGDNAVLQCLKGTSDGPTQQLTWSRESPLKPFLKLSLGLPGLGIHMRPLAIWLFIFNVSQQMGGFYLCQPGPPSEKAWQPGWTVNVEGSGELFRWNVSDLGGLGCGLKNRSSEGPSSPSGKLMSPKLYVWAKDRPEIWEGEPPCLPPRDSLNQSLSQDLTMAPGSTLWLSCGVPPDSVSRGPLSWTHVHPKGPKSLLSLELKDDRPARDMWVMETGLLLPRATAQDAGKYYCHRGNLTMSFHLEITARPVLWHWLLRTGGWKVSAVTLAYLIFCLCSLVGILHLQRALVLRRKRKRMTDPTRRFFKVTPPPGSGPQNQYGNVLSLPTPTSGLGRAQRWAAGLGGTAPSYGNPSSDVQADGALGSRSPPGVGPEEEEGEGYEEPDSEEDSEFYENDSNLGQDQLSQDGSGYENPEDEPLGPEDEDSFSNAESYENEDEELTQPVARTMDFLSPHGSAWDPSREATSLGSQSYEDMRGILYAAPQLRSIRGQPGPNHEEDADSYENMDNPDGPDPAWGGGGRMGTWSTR

[2] = molecular target: T2, CD-80 (UniProt P33681 35-288, limits assumed); test: flow cytometry on cells carrying the target, 2 ug/mL; C-terminal VD
T2 construct: whole, on cells; also called B7-1
T2 sequence (looked up): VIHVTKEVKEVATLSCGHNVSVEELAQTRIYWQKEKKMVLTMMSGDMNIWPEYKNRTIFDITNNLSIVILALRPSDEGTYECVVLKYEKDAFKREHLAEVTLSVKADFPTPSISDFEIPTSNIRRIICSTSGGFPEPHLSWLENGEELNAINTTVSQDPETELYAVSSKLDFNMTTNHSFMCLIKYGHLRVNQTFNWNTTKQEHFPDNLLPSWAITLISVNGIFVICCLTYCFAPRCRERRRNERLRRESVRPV

[3] = molecular target: T3, recombinant His-RON partial ECD (R&D Systems #1947-MS) (UniProt Q04912 25-957, limits assumed); test: competition ELISA: DVD-Ig pre-incubated with 10 nM His-RON partial ECD, then on captured MSP1 (competitor MSP1)
T3 construct: extracellular domain; also called MSP Receptor ECD-His tag; not shown: His tag

[4] = molecular target: T2, CD-80; test: flow cytometry on cells carrying the target, 2 ug/mL; N-terminal VD
[5] = molecular target: T4, CD40/FC (CD40 ECD/FC chimera-His tag) (UniProt P25942 21-193); test: Direct Bind ELISA, C-terminal variable domain
T4 construct: extracellular domain; bought reagent; not shown: IgG FC domain and His tag of the bought chimera
T4 sequence (P25942 21-193, change not shown): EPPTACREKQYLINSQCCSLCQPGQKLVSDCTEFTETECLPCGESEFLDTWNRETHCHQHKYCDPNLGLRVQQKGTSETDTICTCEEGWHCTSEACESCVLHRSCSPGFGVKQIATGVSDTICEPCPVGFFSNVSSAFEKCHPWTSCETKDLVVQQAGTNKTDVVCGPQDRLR

[6] = molecular target: T5, placental growth factor (PLGF) (UniProt P49763-2 21-149, limits assumed); test: ligand-receptor binding competition assay, PlGF binding to VEGFR1
T5 construct: also called P1GF
T5 sequence (looked up): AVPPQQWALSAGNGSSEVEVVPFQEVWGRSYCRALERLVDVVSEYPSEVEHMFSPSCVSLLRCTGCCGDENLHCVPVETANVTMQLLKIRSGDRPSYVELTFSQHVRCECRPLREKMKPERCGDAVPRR

[7] = molecular target: T6, recombinant human HGF (human, UniProt P14210 32-728); test: competition ELISA: antibody co-incubated with 2 nM soluble c-Met Fc on coated HGF (competitor c-Met Fc)
T6 construct: The target there is entered as this HGF; also called hepatocyte growth factor
T6 sequence (P14210 32-728 limits assumed): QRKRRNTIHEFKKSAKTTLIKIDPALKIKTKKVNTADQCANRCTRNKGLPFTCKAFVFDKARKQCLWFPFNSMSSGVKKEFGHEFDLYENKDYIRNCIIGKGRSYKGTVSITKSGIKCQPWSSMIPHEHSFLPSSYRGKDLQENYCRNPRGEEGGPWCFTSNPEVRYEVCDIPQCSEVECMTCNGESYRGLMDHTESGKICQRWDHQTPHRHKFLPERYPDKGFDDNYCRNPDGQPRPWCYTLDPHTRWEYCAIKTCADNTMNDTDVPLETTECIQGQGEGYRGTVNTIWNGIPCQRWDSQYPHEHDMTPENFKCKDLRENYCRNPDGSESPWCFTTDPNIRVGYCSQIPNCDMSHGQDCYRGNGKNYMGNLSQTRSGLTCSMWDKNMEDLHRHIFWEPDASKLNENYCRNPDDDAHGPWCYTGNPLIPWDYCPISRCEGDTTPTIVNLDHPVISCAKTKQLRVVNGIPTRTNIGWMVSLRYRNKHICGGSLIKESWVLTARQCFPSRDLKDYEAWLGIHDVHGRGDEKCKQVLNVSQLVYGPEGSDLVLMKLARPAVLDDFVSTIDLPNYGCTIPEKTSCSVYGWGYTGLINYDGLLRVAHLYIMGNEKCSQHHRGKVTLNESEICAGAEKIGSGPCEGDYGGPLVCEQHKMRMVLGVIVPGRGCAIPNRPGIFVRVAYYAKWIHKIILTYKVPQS

[8] = molecular target: T2, CD-80; test: flow cytometry on cells carrying the target, 2 ug/mL; parent antibody
[9] = molecular target: T1, CD-19; test: as above
[10] = molecular target: T7, CD-20 (UniProt P11836 1-297, limits assumed); test: as above
T7 construct: whole, on cells
T7 sequence (looked up): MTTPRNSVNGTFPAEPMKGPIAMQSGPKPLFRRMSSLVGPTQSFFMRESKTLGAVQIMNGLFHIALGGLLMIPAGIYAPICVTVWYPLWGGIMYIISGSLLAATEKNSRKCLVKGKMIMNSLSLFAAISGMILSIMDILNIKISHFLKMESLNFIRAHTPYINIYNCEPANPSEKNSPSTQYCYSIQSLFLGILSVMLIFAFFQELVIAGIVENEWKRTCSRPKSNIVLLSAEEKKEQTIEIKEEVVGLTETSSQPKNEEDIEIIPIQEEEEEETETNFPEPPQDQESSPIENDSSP

[11] = molecular target: T8, human DLL4 extracellular domain (human, UniProt Q9NR61 27-529, biotin label in the Notch-1 competition ELISA (sites not given)); test: cell-based or functional assay
[12] = molecular target: T9, human DLL4 on 293G-human DLL4 cells (human, UniProt Q9NR61 27-685); test: FACS: inhibition of Notch1 binding to 293G-human DLL4 cells (competitor Notch1)
T9 construct: whole, on cells; no method paragraph describes this FACS assay

[13] = molecular target: T8, human DLL4 extracellular domain; test: competition ELISA: 14 nM biotin-labelled human DLL4 ECD pre-mixed with antibody, then on coated human Notch-1 (competitor Notch-1)
[14] = molecular target: T8, human DLL4 extracellular domain; test: competition ELISA: biotin-labelled human DLL4 ECD pre-mixed with antibody, then on coated human Notch-1 (competitor Notch-1)

B1: DVD002 (bispecific antibody, human IgG1, kappa)
heavy: not shown
light: DILLTQTPASLAVSLGQRATISCKASQSVDYDGDSYLNWYQQIPGQPPKLLIYDASNLVSGIPPRFSGSGSGTDFTLNIHPVEKVDAATYHCQQSTEDPWTFGGGTKLEIKRTVAAPQIVLSQSPAILSPSPGEKVTMTCRASSSVSYIHWFQQKPGSSPKPWIYATSNLASGVPVRFSGSGSGTSYSLTISRVEAEDAATYYCQQWTSNPPTFGGGTKLEIKRTVAAPSVFIFPPSDEQLKSGTASVVCLLNNFYPREAKVQWKVDNALQSGNSQESVTEQDSKDSTYSLSSTLTLSKADYEKHKVYACEVTHQGLSSPVTKSFNRGEC
notes: DVD-Ig; outer AB006 (CD-19), inner AB001 (CD-20); also called CD-19 and CD-20 DVD-Ig
FACS Geometric Mean N-terminal [1]: 1100

B2: DVD005 (bispecific antibody, human IgG1, lambda)
heavy: not shown
light: QIVLSQSPAILSPSPGEKVTMTCRASSSVSYIHWFQQKPGSSPKPWIYATSNLASGVPVRFSGSGSGTSYSLTISRVEAEDAATYYCQQWTSNPPTFGGGTKLEIKRTVAAPESALTQPPSVSGAPGQKVTISCTGSTSNIGGYDLHWYQQLPGTAPKLLIYDINKRPSGISDRFSGSKSGTAASLAITGLQTEDEADYYCQSYDSSLNAQVFGGGTRLTVLGQPKAAPSVTLFPPSSEELQANKATLVCLISDFYPGAVTVAWKADSSPVKAGVETTTPSKQSNNKYAASSYLSLTPEQWKSHRSYSCQVTHEGSTVEKTVAPTECS
notes: DVD-Ig; outer AB001 (CD-20), inner AB007 (CD-80); also called CD-20 and CD-80 DVD-Ig
FACS Geometric Mean C-terminal [2]: 6

B3: DVD047 (VEGF (seq. 1) N-terminal / RON (seq. 1) C-terminal DVD-Ig) (bispecific antibody, human IgG1, kappa)
heavy: not shown
light: DIQMTQSPSSLSASVGDRVTITCSASQDISNYLNWYQQKPGKAPKVLIYFTSSLHSGVPSRFSGSGSGTDFTLTISSLQPEDFATYYCQQYSTVPWTFGQGTKVEIKRTVAAPDVVMTQSPLSLPVTPGEPASISCRSSQSLLHSNGFNYVDWYLQKPGQSPHLLIYFGSYRASGVPDRFSGSGSGTDFTLKISRVEAEDVGVYYCMQALQTPPWTFGQGTKVEIRRTVAAPSVFIFPPSDEQLKSGTASVVCLLNNFYPREAKVQWKVDNALQSGNSQESVTEQDSKDSTYSLSSTLTLSKADYEKHKVYACEVTHQGLSSPVTKSFNRGEC
notes: also called DVD047H/DVD047L
IC50 [3]: 21.3 nM

B4: DVD006 (bispecific antibody, human IgG1, kappa)
heavy: not shown
light: ESALTQPPSVSGAPGQKVTISCTGSTSNIGGYDLHWYQQLPGTAPKLLIYDINKRPSGISDRFSGSKSGTAASLAITGLQTEDEADYYCQSYDSSLNAQVFGGGTRLTVLGQPKAAPQIVLSQSPAILSPSPGEKVTMTCRASSSVSYIHWFQQKPGSSPKPWIYATSNLASGVPVRFSGSGSGTSYSLTISRVEAEDAATYYCQQWTSNPPTFGGGTKLEIKRTVAAPSVFIFPPSDEQLKSGTASVVCLLNNFYPREAKVQWKVDNALQSGNSQESVTEQDSKDSTYSLSSTLTLSKADYEKHKVYACEVTHQGLSSPVTKSFNRGEC
notes: DVD-Ig; outer AB007 (CD-80), inner AB001 (CD-20); also called CD-80 and CD-20 DVD-Ig
FACS Geometric Mean N-terminal [4]: 70.7

B5: DVD009 DVD-Ig (bispecific antibody, human IgG1, kappa)
heavy: not shown
light: QIVLSQSPAILSPSPGEKVTMTCRASSSVSYIHWFQQKPGSSPKPWIYATSNLASGVPVRFSGSGSGTSYSLTISRVEAEDAATYYCQQWTSNPPTFGGGTKLEIKRTVAAPDIVMTQSPLSLTVTPGEPASISCRSSQSLLYSNGYNYLDWYLQKPGQSPQVLISLGSNRASGVPDRFSGSGSGTDFTLKISRVEAEDVGVYYCMQARQTPFTFGPGTKVDIRRTVAAPSVFIFPPSDEQLKSGTASVVCLLNNFYPREAKVQWKVDNALQSGNSQESVTEQDSKDSTYSLSSTLTLSKADYEKHKVYACEVTHQGLSSPVTKSFNRGEC
notes: outer AB001 (CD-20), inner AB009 (CD-40); HC/LC linkers short/short; also called DVD009H; DVD009L
binding result [5]: binds

B6: AB047 (antibody, human IgG1, kappa, V domains shown)
VH: QVQLQQSGAELVKPGASVKISCKASGYTFTDYYINWVKLAPGQGLEWIGWIYPGSGNTKYNEKFKGKATLTIDTSSSTAYMQLSSLTSEDTAVYFCVRDSPFFDYWGQGTLLTVSS
VL: DIVLTQSPDSLAVSLGERVTMNCKSSQSLLNSGMRKSFLAWYQQKPGQSPKLLIYWASTRESGVPDRFTGSGSGTDFTLTISSVQAEDVAVYYCKQSYHLFTFGSGTKLEIKR
notes: Parent anti-PlGF antibody; also called AB047VH
IC50 [6]: 3.07 nM

B7: AB012 (anti-HGF (seq. 1) parent antibody) (antibody, human IgG1, kappa, V domains shown)
VH: QVQLVESGGGLVKPGGSLRLSCAASGFTFSDYYMSWIRQAPGKGLEWVSYISSSGSTIYYADSVKGRFTISRDNAKNSLYLQMNSLRAEDTAVYYCARDEYNSGWYVLFDYWGQGTLVTVSS
VL: DIQMTQSPSSVSASVGDRVTITCRASQGISSWLAWYQQKPGKAPNLLIYEASSLQSGVPSRFGGSGSGTDFTLTISSLQPEDFATYYCQQANGFPWTFGQGTKVEIKR
notes: also called AB012VH/AB012VL
IC50 [7]: 0.18 nM

B8: AB007 (antibody, human IgG1, lambda, V domains shown)
VH: QVQLQESGPGLVKPSETLSLTCAVSGGSISGGYGWGWIRQPPGKGLEWIGSFYSSSGNTYYNPSLKSQVTISTDTSKNQFSLKLNSMTAADTAVYYCVRDRLFSVVGMVYNNWFDVWGPGVLVTVSS
VL: ESALTQPPSVSGAPGQKVTISCTGSTSNIGGYDLHWYQQLPGTAPKLLIYDINKRPSGISDRFSGSKSGTAASLAITGLQTEDEADYYCQSYDSSLNAQVFGGGTRLTVLG
notes: Parent antibody; also called anti-CD-80 parent antibody
FACS Geometric Mean [8]: 25.4

B9: AB006 (antibody, human IgG1, kappa, V domains shown)
VH: QVQLQQSGAELVRPGSSVKISCKASGYAFSSYWMNWVKQRPGQGLEWIGQIWPGDGDTNYNGKFKGKATLTADESSSTAYMQLSSLASEDSAVYFCARRETTTVGRYYYAMDYWGQGTSVTVSS
VL: DILLTQTPASLAVSLGQRATISCKASQSVDYDGDSYLNWYQQIPGQPPKLLIYDASNLVSGIPPRFSGSGSGTDFTLNIHPVEKVDAATYHCQQSTEDPWTFGGGTKLEIKR
notes: Parent antibody
FACS Geometric Mean [9]: 979

B10: AB001 (antibody, human IgG1, kappa, V domains shown)
VH: QVQLQQPGAELVKPGASVKMSCKASGYTFTSYNMHWVKQTPGRGLEWIGAIYPGNGDTSYNQKFKGKATLTADKSSSTAYMQLSSLTSEDSAVYYCARSTYYGGDWYFNVWGAGTTVTVSA
VL: QIVLSQSPAILSPSPGEKVTMTCRASSSVSYIHWFQQKPGSSPKPWIYATSNLASGVPVRFSGSGSGTSYSLTISRVEAEDAATYYCQQWTSNPPTFGGGTKLEIKR
notes: Parent antibody; also called anti-CD-20 parent antibody
FACS Geometric Mean [10]: 95.8

B11: AB015 (anti-DLL-4 (seq. 1) parent antibody) (antibody, human IgG1, kappa)
heavy: not shown
light: DIQMTQSPSSLSASVGDRVTITCRASQDVSTAVAWYQQKPGKAPKLLIYSASFLYSGVPSRFSGSGSGTDFTLTISSLQPEDFATTYYCQQSYTGTVTFGQGTKVEIKRTVAAPSVFIFPPSDEQLKSGTASVVCLLNNFYPREAKVQWKVDNALQSGNSQESVTEQDSKDSTYSLSSTLTLSKADYEKHKVYACEVTHQGLSSPVTKSFNRGEC
notes: also called AB015VH/AB015VL
Ref. Ab Inhibition of sFlt1 (IC50, nM) [11]: 0.34 nM | IC50 [12]: 2.3 nM | IC50 [13]: 2.47 nM and 2.69 nM and 2.53 nM and 2.74 nM | IC50 [14]: 0.37 nM and 0.4 nM
